Experimental data from the supplement of paper PMC7877785.
± gives the uncertainty stated by the source.

Assay: self-splicing fitness, log relative to wild type (ln ratio); higher = more splicing; Tetrahymena group I intron in knt gene, E. coli kanamycin selection, DiMSum; sequences stand for … in CUCUCU…GGAGGGAAAAGUUAUCAGGCAUGCACCUGGUAGCUAGUCUUUAAACCAAUAGAUUGCAUCGGUUUAAAAGGCAAGACCGUCAAAUUGCGGGAAAGGGGUCAACAGCCGUUCAGUACCAAGUCUCAGGGGAAACUUUGAGAUGGCCUUGCAAAGGGUAUGGUAAUAAGCUGACGGACAUGGUCCUAACCACGCAGCCAAGUCCUAAGUCAACAGAUCUUCUGUUGAUAUGGAUGCAGUUCACAGACUAAAUGUCGGUCGGGGAAGAUGUAUUCUUCUCAUAAGAUAUAGUCGGACCUCUCCUUAAUGGGAGCUAGCGGAUGAAGUGAUGCAACACUGGAGCCGCUGGGAACUAAUUUGUAUGCGAAAGUAUAUUGAUUAGUUUUGGAGUACUCGUGGUCG
How it was run: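 Library with all eight P1ex-region intron nucleotides randomised, intron inside the knt kanamycin-resistance gene on pET-22b(+), in E. coli BL21(DE3). Cells grew overnight at 37°C or 30°C on LB agar with or without 25 μg/mL kanamycin (plus 100 μg/mL carbenicillin, 50 μM IPTG, 0.2% rhamnose), in six replicate transformations. Pooled colonies were amplicon-sequenced on Illumina HiSeq 2500. DiMSum fitness is the error-weighted combination of wild-type-normalised replicate fold changes, kanamycin versus none.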

Row | Sequence | self-splicing fitness (ln) (30 °C) | self-splicing fitness (ln) (37 °C)
1 | CUUUAGCAAUAUUACGAUUU | -2.66 ± 0.18 | -2.72 ± 0.3
2 | CUUUAGCAAUAUUACGCCUG | -0.484 ± 0.11 | -0.204 ± 0.14
3 | CUUUAGCAAUAUUACGCCUU | -2.77 ± 0.31 | -2.94 ± 0.43
4 | CUUUAGCAAUAUUACGCGCA | -2.5 ± 0.31 | -1.77 ± 0.42
5 | CUUUAGCAAUAUUACGCGCG | -1.05 ± 0.14 | -0.656 ± 0.17
6 | CUUUAGCAAUAUUACGCUUU | -2.36 ± 0.36 | -1.45 ± 0.41
7 | CUUUAGCAAUAUUACGGAUC | -3.81 ± 0.35 | -1.53 ± 0.18
8 | CUUUAGCAAUAUUACGGCCA | – | -0.666 ± 0.5
9 | CUUUAGCAAUAUUACGGUCC | – | -1.77 ± 0.32
10 | CUUUAGCAAUAUUACGUGCG | -2.29 ± 0.14 | -1.12 ± 0.12
11 | CUUUAGCAAUAUUACGUGGC | – | -2.47 ± 0.44
12 | CUUUAGCAAUAUUACGUUUC | – | -2.15 ± 0.23
13 | GAAAAGCAAUAUUACGAGAA | -3.21 ± 0.48 | -1.11 ± 0.23
14 | GAAAAGCAAUAUUACGAUAC | -1.21 ± 0.25 | -0.873 ± 0.22
15 | GAAAAGCAAUAUUACGAUCC | -1 ± 0.11 | -0.724 ± 0.15
16 | GAAAAGCAAUAUUACGCAAA | -0.0354 ± 0.26 | -1.79 ± 0.32
17 | GAAAAGCAAUAUUACGCAAU | -2.28 ± 0.12 | -1.41 ± 0.17
18 | GAAAAGCAAUAUUACGCAGG | -2.07 ± 0.076 | -1.85 ± 0.087
19 | GAAAAGCAAUAUUACGCCAU | -2.84 ± 0.15 | -1.57 ± 0.15
20 | GAAAAGCAAUAUUACGCCGU | -1.75 ± 0.097 | -0.396 ± 0.1
21 | GAAAAGCAAUAUUACGCGCG | -0.276 ± 0.076 | -0.478 ± 0.11
22 | GAAAAGCAAUAUUACGCGCU | -0.913 ± 0.11 | -0.301 ± 0.11

Row | Sequence | self-splicing fitness (ln) (30 °C) | self-splicing fitness (ln) (37 °C)
23 | GAAAAGCAAUAUUACGGAUC | -1.04 ± 0.072 | -0.773 ± 0.087
24 | GAAAAGCAAUAUUACGGCAC | -0.696 ± 0.058 | -0.217 ± 0.093
25 | GAAAAGCAAUAUUACGGGAG | -2.95 ± 0.097 | -1.95 ± 0.086
26 | GAAAAGCAAUAUUACGGGGA | -1.38 ± 0.16 | -2.44 ± 0.23
27 | GAAAAGCAAUAUUACGGGUA | -1.29 ± 0.1 | -0.306 ± 0.095
28 | GAAAAGCAAUAUUACGGUCA | -0.479 ± 0.067 | 0.0562 ± 0.073
29 | GAAAAGCAAUAUUACGGUCG | -0.446 ± 0.065 | -0.0366 ± 0.1
30 | GAAAAGCAAUAUUACGUACC | -0.525 ± 0.092 | -0.528 ± 0.14
31 | GAAAAGCAAUAUUACGUCAA | -2.62 ± 0.19 | -1.11 ± 0.14
32 | GAAAAGCAAUAUUACGUCAG | -3.91 ± 0.33 | -1.39 ± 0.19
33 | GAAAAGCAAUAUUACGUCCG | -1.72 ± 0.12 | -0.481 ± 0.14
34 | GAAAAGCAAUAUUACGUUAA | -2.85 ± 0.15 | -1.78 ± 0.13
35 | GAAAAGCAAUAUUACGUUCG | -1.01 ± 0.064 | -0.233 ± 0.08
36 | GAACAGCAAUAUUACGAAGA | -1.13 ± 0.18 | -0.694 ± 0.16
37 | GAACAGCAAUAUUACGAAGC | -1.37 ± 0.1 | -1.14 ± 0.13
38 | GAACAGCAAUAUUACGAGAG | -3.49 ± 0.17 | -1.83 ± 0.1
39 | GAACAGCAAUAUUACGAGGA | -2.14 ± 0.11 | -1.53 ± 0.14
40 | GAACAGCAAUAUUACGAGUG | -1.78 ± 0.081 | -1.31 ± 0.1
41 | GAACAGCAAUAUUACGAUCC | -2.18 ± 0.17 | -0.784 ± 0.24
42 | GAACAGCAAUAUUACGCCAU | -3.82 ± 0.2 | -2.14 ± 0.18
43 | GAACAGCAAUAUUACGCGUC | -2.99 ± 0.12 | -3.19 ± 0.16
